B1: ^32P-labelled XPG-HMK (human XPG with a C-terminal heart muscle kinase recognition sequence tag) (enzyme)
chain: MGVQGLWKLLECSGRQVSPEALEGKILAVDISIWLNQALKGVRDRHGNSIENPHLLTLFHRLCKLLFFRIRPIFVFDGDAPLLKKQTLVKRRQRKDLASSDSRKTTEKLLKTFLKRQAIKTAFRSKRDEALPSLTQVRRENDLYVLPPLQEEEKHSSEEEDEKEWQERMNQKQALQEEFFHNPQAIDIESEDFSSLPPEVKHEILTDMKEFTKRRRTLFEAMPEESDDFSQYQLKGLLKKNYLNQHIEHVQKEMNQQHSGHIRRQYEDEGGFLKEVESRRVVSEDTSHYILIKGIQAKTVAEVDSESLPSSSKMHGMSFDVKSSPCEKLKTEKEPDATPPSPRTLLAMQAALLGSSSEEELESENRRQARGRNAPAAVDEGSISPRTLSAIKRALDDDEDVKVCAGDDVQTGGPGAEEMRINSSTENSDEGLKVRDGKGIPFTATLASSSVNSAEEHVASTNEGREPTDSVPKEQMSLVHVGTEAFPISDESMIKDRKDRLPLESAVVRHSDAPGLPNGRELTPASPTCTNSVSKNETHAEVLEQQNELCPYESKFDSSLLSSDDETKCKPNSASEVIGPVSLQETSSIVSVPSEAVDNVENVVSFNAKEHENFLETIQEQQTTESAGQDLISIPKAVEPMEIDSEESESDGSFIEVQSVISDEELQAEFPETSKPPSEQGEEELVGTREGEAPAESESLLRDNSERDDVDGEPQEAEKDAEDSLHEWQDINLEELETLESNLLAQQNSLKAQKQQQERIAATVTGQMFLESQELLRLFGIPYIQAPMEAEAQCAILDLTDQTSGTITDDSDIWLFGARHVYRNFFNKNKFVEYYQYVDFHNQLGLDRNKLINLAYLLGSDYTEGIPTVGCVTAMEILNEFPGHGLEPLLKFSEWWHEAQKNPKIRPNPHDTKVKKKLRTLQLTPGFPNPAVAEAYLKPVVDDSKGSFLWGKPDLDKIREFCQRYFGWNRTKTDESLFPVLKQLDAQQTQLRIDSFFRLAQQEKEDAKRIKSQRLNRAVTCMLRKEKEAAASEIEAVSVAMEKEFELLDKAKGKTQKRGITNTLEESSSLKRKRLSDSKGKNTCGGFLGETCLSESSDGSSSEDAESSSLMNVQRRTAAKEPKTSASDSQNSVKEAPVKNGGATTSSSSDSDDDGGKEKMVLVTARSVFGKKRRKLRRARGRKRKTRRASV
modifications: ^32P-labeled at the heart muscle kinase (HMK) recognition tag RRASV
notes: The tagged form was used only in the far western and slot blot assays, as the labelled probe in solution; also called ^32P-labeled XPG with a heart muscle kinase (HMK) tag

Assay [1] concerns the target T1, human PC4 protein (full length wild type) (human, UniProt P53999 1-127).
T1 construct: Full length wild type PC4 expressed in E. coli BL21(DE3) and purified by the methods of Ge et al; It was immobilised on the membrane, denatured after SDS-PAGE in the far western and native in the slot blot
In words: far western: ^32P-labelled XPG-HMK probe on PC4 transferred from SDS-PAGE. The method, then:
(§1) For “far western” analysis, human PC4 protein (1.5 μg), human Nth1 protein (2.1 μg) and E. coli EndoIII (3 μg) were separated on SDS-PAGE (pre-cast 4-20% gel, BioRad), transferred to a PVDF membrane, and stained with Ponceau S to visualize the proteins on the membrane. The membrane was then blocked with a blocking buffer (25 mM Hepes-KOH (pH 7.7), 25 mM NaCl, 5 mM MgCl₂, 1 mM DTT, 1% nonfat milk and 0.1% NP-40) for 2 hours at 4° C. and probed overnight at 4° C. on a rocker with blocking buffer containing 150 mM KCl and ³²P-labeled XPG with a heart muscle kinase (HMK) tag. The membrane was washed with washing buffer (25 mM Hepes-KOH (pH 7.7), 25 mM NaCl, 150 mM KCl, 5 mM MgCl2, 1 mM DTT, 1% nonfat milk and 0.5% NP-40), and interactions were visualized by both phosphorimager and autoradiography. For slot-blot analysis 1 μg each of PC4, hNth1 and EndoIII were applied to a nitrocellulose membrane, and the membrane was processed as above.
(§2) Since Sub1 evidently functions in a pathway involving Rad2, we tested the possibility of direct interaction between the human PC4 and XPG proteins by “far western” analysis. To test PC4-XPG interaction, ³²P-labeled XPG was used as a probe for PC4 transferred onto a membrane from an SDS-PAGE gel. […]

Assay [2] deals with B1. In words: far western: ^32P-labelled XPG-HMK probe on proteins transferred from SDS-PAGE. As for the experimental part:
as §1, §2

Results on two molecules are retold here after patent US20100077492A1 (UNIVERSITY OF MASSACHUSETTS, published 2010).

Regarding B1, the binding result in assay [1] is “binds”.

B2: E. coli Endo III (enzyme, UniProt P0AB83 1-211, looked up)
chain: MNKAKRLEILTRLRENNPHPTTELNFSSPFELLIAVLLSAQATDVSVNKATAKLYPVANTPAAMLELGVEGVKTYIKTIGLYNSKAENIIKTCRILLEQHNGEVPEDRAALEALPGVGRKTANVVLNTAFGWPTIAVDTHIFRVCNRTQFAPGKNVEQVEEKLLKVVPAEFKVDCHHWLILHGRYTCIARKPRCGSCIIEDLCEYKEKVDI
notes: Negative control, immobilised on the membrane
Take B2: the binding result in assay [2] is reported as “no binding (tested: 3 µg EndoIII on the membrane)”.
